From the Human Domainome abundance scans (Beltran et al. 2025)

B1: Gamma-crystallin C, residues 4 to 79; numbered along this chain, P07315 (parent)
chain: ITFYEDRAFQGRSYETTTDCPNLQPYFSRCNSIRVESGCWMLYERPNYQGQQYLLRRGEYPDYQQWMGLSDSIRSC

Variants of: B1
Test: abundance fitness (aPCA) (normalised: wild type 0, dead -1); higher = more abundant; growth selection in yeast, the domain comes from the species named
Settings: Homo sapiens

Abundance fitness of substitutions, site by site:
Q49: E 0.098, R -0.07, Y -0.013, L 0.022, M -0.115, V -0.098, F -0.298, P -0.805, K -0.056, D -0.041, N -0.053, T 0.026, A -0.02, W -0.275, G -0.045, C 0.33
R29: T 0.101, S 0.059, V -0.009, E -0.021, M 0.096, Y 0.024, F 0.103, W -0.053, Q -0.117
E44: F -0.414, M 0.355, V -0.147, W -0.372, A -0.034, G 0.02, P -0.283, C 0.068, Q 0.049, R 0.002, I -0.02, H -0.137, T -0.206, D 0.022, L -0.006, S -0.077
S32: I -0.805, P -0.857, W -0.889, R -1.07, G -0.424, D -0.812, L -0.985, Q -0.916, A -0.101, F -1.09, H -0.642, K -0.953
E36: Q -0.081, I -0.201, M 0.019, D 0.021, T 0.11, F -0.131, K -0.074, L -0.078, N -0.004, W 0.003, V 0.008, P 0.018, R -0.069, S -0.032, A 0.048, G -0.031
G50: V -0.788, R -0.555, H -0.857, D -0.456, C -0.336, S -0.244, N -0.359, A -0.276, K -0.574, I -0.806, E -0.372, L -0.894, M -1.02
Y43: F -0.15, S 0.094, A -0.156, D -0.817, W -0.139, H 0.055, T -0.249, V -1.05, G -0.775, R -0.926, L -0.889, Q -0.86, P -1.03, C 0.111, M -0.296
V35: I -0.916, W -1.08, Y -0.827, P -1.03, R -0.893, E -1.11, Q -0.854, T -0.081, S -0.589, L -0.038, C -0.291, G -1.01, A -0.422, M -0.84
S37: E -0.12, L -0.301, Q -0.124, A -0.255, R -0.004, V 0.066, I 0.072, T 0.028, H -0.142, W -0.113, G -0.061, C -0.091, M -0.031
R45: G 0.061, H -0.057, F 0.032, D -0.11, S -0.127, K 0.089, V -0.15, Q -0.13, L -0.146, T -0.001, I -0.16, M -0.001, C -0.142, W -0.04, Y 0.187, N -0.169, P -0.955, A -0.025
Q51: W -0.149, L 0.014, E -0.023, D -0.056, S -0.015, M -0.088, V -0.016, G -0.047, P -0.219, A -0.012, T -0.159, C -0.19, I 0.078
G38: C -0.005, T -0.191, I -0.202, H -0.309, P -0.108, K -0.177, L -0.177, E -0.009, A -0.008, Y -0.109, M -0.141, S 0, R -0.153, W -0.427, D 0.171
Y53: F -0.015, E -0.142, C -0.113, A -0.127
C39: L -0.074, N -0.12, W 0.031, M -0.027, E -0.045, Y -0.014, R -0.071, I -0.014, G 0.08, D -0.133, P 0.092, T -0.012, Q -0.088, V 0.011, A -0.051, S 0.062, F -0.036
N31: A -0.576, T -0.056, R -0.013, G -0.069, S -0.019, V -0.052, L -0.294
I33: V -0.094, T -0.494, S -0.642, W -0.776, R -0.883, C 0.074, P -0.756, F -0.057, Q -0.792, M 0.191, A 0.054, E -0.676, K -0.835
R34: F -0.113, Y -0.098, A 0.026, T 0.047, C -0.107, L -0.077, W -0.045, H -0.163, E -0.373, M -0.153, Q -0.041, V -0.039, G -0.593, D -0.382, P -0.827, S -0.143
Y48: A -0.329, G -0.109, V -0.955, N -0.121, H 0.042, F -0.584, T -0.626, S -0.324, L -0.182, R -0.508, K -0.813, E -0.373, C 0.083, M 0.148
M41: F 0.104, V -0.115, E 0.059, K -0.056, Y 0.032, A -0.07, R -0.018, H -0.186, P -0.981, C -0.041, S 0.068, D -0.133, L -0.056, W 0.039, N -0.132, Q 0.046
C30: S 0.03, W -0.58, G -0.582, R -0.768, I -0.1, Y -0.472, T -0.176, F -0.176, P -0.079, L -0.299, E -0.95, Q -0.713
Q52: D 0.102, G -0.071, I -0.105, M -0.108, C -0.138, N -0.053, T -0.114, W -0.141, H 0.082, L -0.017, R -0.072, Y -0.326, F 0.093, S -0.041, A -0.014, E 0.014, V -0.076
N47: Q -0.179, F -0.101, D -0.032, K 0.025, E 0.047, P -0.909, C -0.159, S -0.115, L -0.01, Y 0.002, H -0.125, M -0.044, G 0.08, A 0.047, R -0.038, W -0.086, T -0.1, V -0.181, I -0.308
L42: V -0.011, R -1.16, Q -0.888, S -0.287, D -0.857, G -0.063, T -0.095, Y -0.728, M 0.045, E -1.16, C -0.031, N -0.967, A -0.102, W -0.919, P -0.864
W40: I 0.01, E -0.978, A 0.036, Y -0.16, T -0.43, D -0.849, G -0.435, S -0.451, V 0.088, C 0.03, R -0.969, L -0.243, P -0.939, M -0.496
